Reference: patent US20200093922A1 (AGENCY FOR SCIENCE TECHNOLOGY AND RESEARCH, published 2020)
Substitutions are numbered along the chain they refer to.

Legend:
[1] = target: T1, biotinylated murine PD-L1 (murine, UniProt Q9EP73 19-238, limits assumed, biotinylated (site not stated)); assay: blocking ELISA of murine PD-L1 binding to murine PD-1 (blocked partner), Example 3
[2] = target: T2, PD-L1 on MDA-MB-231 human breast cancer cells (human, UniProt Q9NZQ7 19-290); assay: flow cytometry on MDA-MB-231 cells expressing PD-L1, MFI against IgG1 (nM)
T2 construct: whole, on cells; also called cells expressing PD-L1

[3] = target: T3, human PD-L1 expressed on transfected HEK 293 cells (human, UniProt Q9NZQ7 19-290); assay: flow cytometry blocking assay: antibody mixed with human PD-1-PE (blocked partner), added to HEK293 cells transfected with human PD-L1
T3 construct: whole, on cells; also called PD-L1 transfected cells; HEK293-6E cells transfected with human PD-L1
From the text: Cells were washed 3 times with PBS and all data were collected on a BD FACSCanto II (BD Bioscience) and analysed on BD FACSDiva software (BD Bioscience).

human TIM-3 = target: T4, human TIM-3 (human, UniProt Q8TDQ0 22-200, limits assumed); assay: ELISA on coated antigen (sheet label huTIM-3-Fc)
T4 construct: also called hu TIM-3

human ICOS = target: T5, human ICOS (human, UniProt Q9Y6W8 21-140, limits assumed); assay: ELISA on coated antigen (sheet label huICOS-Fc)
T5 construct: also called hu ICOS
T5 sequence (looked up): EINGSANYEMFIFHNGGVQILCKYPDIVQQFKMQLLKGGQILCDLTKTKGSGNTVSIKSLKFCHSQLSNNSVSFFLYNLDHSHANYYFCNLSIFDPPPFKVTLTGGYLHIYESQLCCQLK

biotinylated human PD-L1 [4] = target: T6, biotinylated human PD-L1 (human, UniProt Q9NZQ7 19-238, limits assumed, biotinylated (site not stated)); assay: avidity ELISA: biotinylated human PD-L1 at 0.2 ug/mL on neutravidin, antibody titrated (x axis IgG, nM), anti-human Fc-HRP
Procedure: Neutravidin was coated onto maxisorp plates at 2 μg/mL in coating buffer and incubated overnight at 4° C. The next day, plates were washed with wash buffer (PBS+0.05% Tween-20), and blocker with casein for 1 hour, at room temperature. Plates were then washed again using wash buffer. […] Plates were then washed again using wash buffer. The different antibodies were then added at various concentrations, and incubated for 1 hour at room temperature. Plates were then washed again using wash buffer. Anti-human Fc-HRP was then added and incubated for 1 hour at room temperature. Plates were then washed again using wash buffer. Finally, TMB was added to develop the ELISA; TMB conversion by HRP was stopped using 1M H-Cl.

human PD-L2 = target: T7, human PD-L2 (human, UniProt Q9BQ51 20-220, limits assumed); assay: ELISA on coated antigen (sheet label huPD-L2-Fc)
T7 construct: also called hu PD-L2
T7 sequence (looked up): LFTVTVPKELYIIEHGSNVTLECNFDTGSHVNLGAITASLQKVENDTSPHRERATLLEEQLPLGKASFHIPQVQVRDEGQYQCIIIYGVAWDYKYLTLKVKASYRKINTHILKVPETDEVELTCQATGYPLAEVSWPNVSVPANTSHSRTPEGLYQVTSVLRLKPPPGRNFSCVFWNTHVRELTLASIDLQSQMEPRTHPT

[5] = target: PD-L1 (blocking ELISA of Example 13) (Homo sapiens (Human), UniProt Q9NZQ7 19-238); assay: blocking ELISA: antibody pre-incubated with PD-L1, added to coated PD-1 (blocked partner), PD-1-bound PD-L1 detected
human LAG-3 = target: T8, human LAG-3 (human, UniProt P18627 23-450, limits assumed); assay: ELISA on coated antigen (sheet label huLAG-3-Fc)
T8 construct: also called hu LAG-3
T8 sequence (looked up): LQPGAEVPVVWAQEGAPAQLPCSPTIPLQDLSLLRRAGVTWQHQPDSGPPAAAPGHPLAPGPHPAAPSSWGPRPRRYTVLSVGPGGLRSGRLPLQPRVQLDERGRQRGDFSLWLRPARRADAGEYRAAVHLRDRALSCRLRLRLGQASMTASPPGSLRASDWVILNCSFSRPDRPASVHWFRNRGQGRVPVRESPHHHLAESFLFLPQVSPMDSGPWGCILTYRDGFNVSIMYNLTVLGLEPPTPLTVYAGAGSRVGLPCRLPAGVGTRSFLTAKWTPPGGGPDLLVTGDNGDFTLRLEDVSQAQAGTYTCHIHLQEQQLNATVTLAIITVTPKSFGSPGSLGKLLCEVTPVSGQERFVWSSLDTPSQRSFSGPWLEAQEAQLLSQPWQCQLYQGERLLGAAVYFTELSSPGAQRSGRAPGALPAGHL

biotinylated human PD-L1 [6] = target: T6, biotinylated human PD-L1; assay: ELISA: antibody coated at 2 ug/mL, biotinylated human PD-L1 titrated (x axis Human PD-L1, nM), streptavidin-HRP
Procedure: Binding was measured by ELISA. Antibodies were coated onto maxisorp plates at 2 μg/mL in coating buffer and incubated overnight at 4° C. The next day, plates were washed with wash buffer (PBS+0.05% Tween-20), and blocker with casein for 1 hour, at room temperature. Plates were then washed again using wash buffer. […] Plates were then washed again using wash buffer. […] Plates were then washed again using wash buffer. Finally, TMB was added to develop the ELISA; TMB conversion by HRP was stopped using 1M H-Cl.

human CD28 = target: T9, human CD28 (human, UniProt P10747 19-152, limits assumed); assay: ELISA on coated antigen (sheet label huCD28-Fc)
T9 construct: also called hu CD28

[7] = target: T10, human PD-1 (ELISA antigen of Example 8) (human, UniProt Q15116 25-167, limits assumed); assay: ELISA on coated antigen (sheet label huPD-1-Fc)
T10 construct: also called hu PD-1

human BTLA = target: T11, human BTLA (human, UniProt Q7Z6A9 31-151, limits assumed); assay: ELISA on coated antigen (sheet label huBTLA-Fc)
T11 construct: also called hu BLTA

human CTLA-4 = target: T12, human CTLA-4 (human, UniProt P16410 36-162, limits assumed); assay: ELISA on coated antigen (sheet label huCTL-A4)
T12 construct: also called hu CTL-A4

[8] = target: T13, human PD-L1 (ELISA antigen, construct not stated) (human, UniProt Q9NZQ7 19-238, limits assumed); assay: ELISA of Fab clones with human PD-L1 as antigen
T13 construct: The construct is not described; also called hu PD-L1

[9] = target: T14, human PD-L1 coupled to human Fc (human, UniProt Q9NZQ7 19-239, limits assumed); assay: ELISA on coated human PD-L1-Fc, Fab detected with anti-human Fab-HRP, absorbance 450-670 nm
T14 construct: also called human PD-L1-Fc; not shown: human Fc
Procedure: (§1) After 90 minutes at room temperature under agitation and extensive washes, a goat anti-human Fab antibody coupled to HRP was added. One hour later, plates were washed and TMB substrate added. The reaction was stopped with 1M HCl and optical density measured at 450 nm with a reference at 670 nm.

biotinylated human PD-L1 [10] = target: T6, biotinylated human PD-L1; assay: blocking ELISA: biotinylated human PD-L1 pre-incubated with Fab, then added to coated human PD-1-Fc (blocked partner), streptavidin-HRP
[11] = target: T15, murine PD-L1 coupled to human Fc (murine, UniProt Q9EP73 19-238, limits assumed); assay: ELISA on coated murine PD-L1-Fc, Fab detected with anti-human Fab-HRP, absorbance 450-670 nm
T15 construct: also called murine PD-L1-Fc; mouse PD-L1 coupled to Fc; not shown: human Fc
Procedure: as §1

[12] = target: T1, biotinylated murine PD-L1; assay: blocking ELISA: biotinylated murine PD-L1 pre-incubated with Fab, then added to coated murine PD-1-Fc (blocked partner), streptavidin-HRP

T6 sequence (Q9NZQ7 19-238 limits assumed): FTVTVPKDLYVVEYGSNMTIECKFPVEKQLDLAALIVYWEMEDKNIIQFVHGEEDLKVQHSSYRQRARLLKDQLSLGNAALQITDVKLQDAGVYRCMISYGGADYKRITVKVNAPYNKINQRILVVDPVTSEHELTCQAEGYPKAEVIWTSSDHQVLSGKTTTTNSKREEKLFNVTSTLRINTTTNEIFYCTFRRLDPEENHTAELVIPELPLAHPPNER
T3 sequence (Q9NZQ7 19-290): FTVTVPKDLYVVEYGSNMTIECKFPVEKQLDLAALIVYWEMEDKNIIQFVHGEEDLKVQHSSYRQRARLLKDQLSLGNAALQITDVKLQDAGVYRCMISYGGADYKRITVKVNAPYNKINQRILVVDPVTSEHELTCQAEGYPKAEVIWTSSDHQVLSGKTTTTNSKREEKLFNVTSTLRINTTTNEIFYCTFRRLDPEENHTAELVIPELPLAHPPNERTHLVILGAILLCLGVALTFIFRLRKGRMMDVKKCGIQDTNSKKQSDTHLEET
T15 sequence (Q9EP73 19-238 limits assumed): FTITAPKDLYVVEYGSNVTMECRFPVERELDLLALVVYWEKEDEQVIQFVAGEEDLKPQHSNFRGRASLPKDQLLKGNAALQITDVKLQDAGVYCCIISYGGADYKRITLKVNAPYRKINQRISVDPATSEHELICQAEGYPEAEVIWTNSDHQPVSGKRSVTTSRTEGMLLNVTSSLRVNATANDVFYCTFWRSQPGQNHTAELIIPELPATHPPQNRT
T1 sequence (Q9EP73 19-238 limits assumed): as above
Chain of PD-L1 (blocking ELISA of Example 13) (Q9NZQ7 19-238 limits assumed): as the sequence (Q9NZQ7 19-238 limits assumed) above
T2 sequence (Q9NZQ7 19-290): as the sequence (Q9NZQ7 19-290) above
T13 sequence (Q9NZQ7 19-238 limits assumed): as the sequence (Q9NZQ7 19-238 limits assumed) above
T12 sequence (P16410 36-162 limits assumed): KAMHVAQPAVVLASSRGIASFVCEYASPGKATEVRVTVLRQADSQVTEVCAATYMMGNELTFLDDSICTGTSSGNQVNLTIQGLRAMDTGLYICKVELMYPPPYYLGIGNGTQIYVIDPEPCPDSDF
T10 sequence (Q15116 25-167 limits assumed): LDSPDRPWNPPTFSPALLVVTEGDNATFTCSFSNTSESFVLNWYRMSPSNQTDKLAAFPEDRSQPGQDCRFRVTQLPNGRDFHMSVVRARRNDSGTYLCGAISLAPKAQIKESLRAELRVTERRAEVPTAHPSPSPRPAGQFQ
T11 sequence (Q7Z6A9 31-151 limits assumed): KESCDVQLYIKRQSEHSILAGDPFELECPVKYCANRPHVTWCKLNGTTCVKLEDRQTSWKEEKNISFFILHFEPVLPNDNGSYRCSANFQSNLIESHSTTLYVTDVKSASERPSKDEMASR
T14 sequence (Q9NZQ7 19-239 limits assumed): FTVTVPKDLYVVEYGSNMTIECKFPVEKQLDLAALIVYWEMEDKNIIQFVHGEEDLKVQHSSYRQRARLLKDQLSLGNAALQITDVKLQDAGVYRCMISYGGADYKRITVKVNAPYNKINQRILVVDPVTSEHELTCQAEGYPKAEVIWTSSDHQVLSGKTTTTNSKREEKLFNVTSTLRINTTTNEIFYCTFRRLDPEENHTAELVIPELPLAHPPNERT

B1: anti-PD-L1 antibody H12 in IgG1 format (antibody, V domains shown)
VH: EVQLVQSGAEVKKPGASVKVSCKASGGTFSSYAISWVRQAPGQGLEWMGRIIPILGIANYAQKFQGRVTITADKSTSTAYMELSSLRSEDTAVYYCARSGHGYSYGAFDYWGQGTL
VL: QSVLTQPPSVSGAPGQRVTISCTGSSSNIGAGYDVHWYQQLPGTAPKLLIYGNSNRPSGVPDRFSGSKSGTSASLAITGLQAEDEADYYCQSYDSSLSGSYVVFGGGTKLTVL
notes: IgG1; also called H12 (IgG1); H12-IgG1
- IC50 (read off the curve) [1]: ~1 nM
- EC50 (read off the curve) [2]: ~200 nM
- IC50 (read off the curve) [3]: ~8 nM

B2: anti-PD-L1 antibody H12 in IgG4 format (antibody, V domains shown)
VH: B1 VH
VL: B1 VL
notes: IgG4; also called H12-IgG4
- IC50 (read off the curve) [3]: ~8 nM

B3: anti-PD-L1 antibody H12 (format not stated) (antibody, V domains shown)
VH: B1 VH
VL: B1 VL
- binding result (human TIM-3): no binding
- binding result (human ICOS): no binding
- EC50 (read off the curve) (biotinylated human PD-L1 [4]): ~0.1 nM
- binding result (human PD-L2): no binding
- IC50 (read off the curve) [5]: ~2 nM
- binding result (human LAG-3): no binding
- EC50 (read off the curve) (biotinylated human PD-L1 [6]): ~0.4 nM
- binding result (human CD28): no binding
- binding result [7]: no binding
- binding result (human BTLA): no binding
- binding result (human CTLA-4): no binding

B4: anti-PD-L1 antibody clone A1, Fab format (Fab, V domains shown)
VH: QVQLQQSGAEVKKPGSSVKVSCKASGGTFSSYAISWVRQAPGQGLEWMGRIIPILGIANYAQKFQGRVTITADKSTSTAYMELSSLRSEDTAVYYCARGGSYGSLYAFDIWGQGTMVTVSS
VL: QSVLTQPPSVSAAPGQRVSISCSGRSSNIASHDVFWYQQLPGTAPKIVMYETNKRPWGIPDRFSGSKSGTSATLDIAGLQTGDEADYYCGAWDSGLTGMLFGGGTKVTVL
notes: From a human phage display library and tested as Fab; the Fab constant domains are not
- binding result [8]: binds
- binding result [9]: binds
- binding result (biotinylated human PD-L1 [10]): binds
- binding result [11]: binds
- binding result [12]: binds

B5: anti-PD-L1 antibody H12_GL in IgG4 format (antibody, V domains shown)
VH: B4 VH with Q5V, G99S, S101H, Y102G, G103Y, L105Y, Y106G, I110Y, M116L
VL: B1 VL
notes: IgG4; also called H12_GL-IgG4
- IC50 (read off the curve) [3]: ~8 nM

B6: anti-PD-L1 antibody H12_GL in IgG1 format (antibody, V domains shown)
VH: B4 VH with Q5V, G99S, S101H, Y102G, G103Y, L105Y, Y106G, I110Y, M116L
VL: B1 VL
notes: H12 with its framework reverted to germline-like; IgG1; also called H12_GL-IgG1
- IC50 (read off the curve) [3]: ~8 nM

B7: anti-PD-L1 antibody clone C2, Fab format (Fab, V domains shown)
VH: B4 VH with M116T
VL: SYELTQPPSVSVAPGKTTRITCGGDNIGRKSVHWYQQRPGQAPLLLVYDDGDRPSGIPDRFSGSNSGNTATLTISGTQAMDEADYYCQAWDSTVVFGGGTRLTVL
notes: Tested as Fab
- IC50 (read off the curve) (biotinylated human PD-L1 [10]): ~50 nM
- binding result [11]: binds
- binding result [12]: binds

B8: anti-PD-L1 antibody clone C4, Fab format (Fab, V domains shown)
VH: QVQLQQSGAEVKKPGSSVKVSCKASGGTFSSYAISWVRQAPGQGLEWMGRIIPILGIANYAQKFQGRVTITADKSTSTAYMELSSLRSEDTAVYYCARGGYGGNSLYAFDIWGQGTMVTVSS
VL: QSVVTQPPSVSAAPGQKVTISCSGSSSNIGNNYVSWYQQLPGTAPKLLIYDNNERLSGIPDRFSGSKSGTSATLGISGLQTGDEADYYCGTWDSSLSVVVFGGGTKLTVL
notes: Tested as Fab
- IC50 (read off the curve) (biotinylated human PD-L1 [10]): ~50 nM
- binding result [11]: binds
- binding result [12]: binds

B9: anti-PD-L1 antibody C4 (format not stated) (antibody, V domains shown)
VH: B8 VH
VL: B8 VL
- EC50 (read off the curve) (biotinylated human PD-L1 [4]): ~1 nM
- IC50 (read off the curve) [5]: ~2 nM
- EC50 (read off the curve) (biotinylated human PD-L1 [6]): ~0.8 nM

B10: anti-PD-L1 antibody C4 in IgG1 format (antibody, V domains shown)
VH: B8 VH
VL: B8 VL
notes: also called C4 IgG1
- EC50 (read off the curve) [2]: ~200 nM
